Values belong to the molecule of their own block, whether it stands above or below them.
What was measured:
[1] = target: T1, recombinant human PD-1/Fc (Homo sapiens, UniProt Q15116); assay: PD-1 binding ELISA, human B7-DC-Ig; conditions: plates coated with recombinant human PD-1/Fc, four different lots, FIG. 1A
T1 construct: Fc; purchased R&D Systems
Procedure: (§1) 96-well ELISA plates were coated with 100 μL 0.75 ug/mL recombinant human PD-1/Fc (R&D Systems) diluted in BupH Carbonate/Bicarbonate pH 9.4 buffer (Pierce) for 2 hours and then blocked with BSA solution (Jackson ImmunoResearch) for 90-120 minutes. […] Absorbance at 450 nm was read using a plate reader (Molecular Devices) and data were analyzed in SoftMax using a 4-parameter logistic fit.

[2] = target: T2, recombinant mouse PD-1/Fc (Mus musculus, UniProt Q02242); assay: PD-1 binding ELISA, murine B7-DC-Ig; conditions: plates coated with recombinant mouse PD-1/Fc, compared with wild type, FIG. 1B
T2 construct: Fc; purchased R&D Systems
T2 sequence (Q02242 with tags, fused parts or gaps limits assumed): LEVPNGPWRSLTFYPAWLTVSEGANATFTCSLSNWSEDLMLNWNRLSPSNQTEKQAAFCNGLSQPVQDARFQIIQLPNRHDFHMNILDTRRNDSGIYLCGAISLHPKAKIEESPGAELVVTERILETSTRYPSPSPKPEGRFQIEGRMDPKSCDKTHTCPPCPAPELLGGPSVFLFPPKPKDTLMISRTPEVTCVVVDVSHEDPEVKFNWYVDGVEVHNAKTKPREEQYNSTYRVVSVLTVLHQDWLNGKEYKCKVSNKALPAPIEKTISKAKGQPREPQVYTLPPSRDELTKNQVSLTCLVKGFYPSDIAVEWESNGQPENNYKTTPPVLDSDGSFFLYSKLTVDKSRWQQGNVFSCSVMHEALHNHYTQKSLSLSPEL
Procedure: as §1, with “mouse” for “human”, “(Candor-Bioscience)” for “(Jackson ImmunoResearch)”, “90” for “90-120”

[3] = system: CT26 colorectal tumor cells; conditions: CTX 100 mg/kg alone, day 10; all mice in the group
Procedure: Mouse colorectal tumor cell line, CT26, was obtained from ATCC. A master cell bank at Passage 4 was generated following ATCC guidelines.
One vial of tumor cells was thawed from the cryopreserved stocks and grown for two passages prior to inoculation.
CT26 cells were split at 1:5 dilution with 30 mL complete medium (RPMI+10% FBS, 2 mM L-Glu, and 1×P/S) for two days culture or at 1:10 dilution with 30 ml complete medium for 3 days culture.
CT26 cells were harvested by aspirating medium, rinsing the flask with 5 mL PBS, adding 5 mL trypsin, incubating at 37° C. for 2 min, and then neutralizing with 10 mL complete medium. After centrifuge at 600×g (˜1000 rpm) for 5 min, media was aspirated and the cell pellet was resuspended by pipetting with 10 ml plain RPMI. This wash step was repeated for three times.
Cell number and viability of the inoculated cells were analyzed by trypan blue dye staining with proper dilution (e.g. 1:5 dilution, 10 μL cells+40 μL trypan blue) and confirmed by NOVA cell count during the last wash step.
On Day 9, all the tumor-bearing mice were first grouped into a rat cage and randomly divided the mice to experimental groups. CTX solution was reconstituted by 1×PBS to 4 mg/mL. Mice were intraperitoneally (IP) injected with 0.5 mL of CTX solution resulting in 2 mg for a 20 gram mouse, i.e. 100 mg/kg.
The same dose was given 2 time a week for 4 weeks, total 8 doses.

P815 mastocytoma cells = assay: P815 mastocytoma tumor model; type: in vivo, DBA/2 mice
Procedure: P815 mastocytoma cells were derived from DBA/2 mice after methylcholanthrene (MCA) treatment. Injection of 5×10^4 cells SC can result in mortality approximately 35 days post tumor inoculation.
DBA/2 mice (6-10 weeks of age, females) were first challenged with 5×10^4 live P815 cells injected SC in the flank. Six days later, the mice were treated with murine B7-DC-Ig via IP injection. […] Control groups were treated with vehicle only or with murine IgG. Tumor size was measured with digital calipers every 2-3 days. Mice were euthanized and defined as dead when their tumor size reached or exceeded 1000 mm^3, according to protocols approved by the Institutional Animal Care and Use Committee (IACUC) of the American Red Cross (ARC; the site of Amplimmune's vivarium). Surviving tumor free mice were re-challenged with P815 tumor cells on Day 52.
The tumor-free mice were then re-challenged with 5×10^4 P815 cells administered to the flank opposite the primary inoculation site on Day 52.

[4] = system: more aggressive, less immunogenic tumor types; assay: Activity against more aggressive, less immunogenic tumor types; type: in vivo; conditions: single agent
[5] = 100 ug per injection IP, 2 times per week, up to 6 doses
[6] = 5 mice per group, 5 mg/kg IP biw 3 weeks starting Day 6

T1 sequence (Q15116 with tags, fused parts or gaps limits assumed): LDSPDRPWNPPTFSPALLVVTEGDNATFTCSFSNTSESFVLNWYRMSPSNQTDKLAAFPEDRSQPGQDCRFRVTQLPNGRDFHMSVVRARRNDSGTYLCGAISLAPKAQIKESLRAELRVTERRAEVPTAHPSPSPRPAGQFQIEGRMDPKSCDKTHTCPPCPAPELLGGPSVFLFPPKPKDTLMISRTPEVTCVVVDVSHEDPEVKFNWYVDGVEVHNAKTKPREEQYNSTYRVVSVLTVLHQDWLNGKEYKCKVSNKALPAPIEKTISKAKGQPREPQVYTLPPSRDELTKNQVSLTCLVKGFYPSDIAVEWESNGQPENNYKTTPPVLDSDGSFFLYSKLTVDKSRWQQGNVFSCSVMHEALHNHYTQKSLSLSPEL

- PD-1 binding activity (OD450) [1]: binding
Molecule: B7-DC-Ig: human PD-L2 (B7-DC) extracellular domain fused to hinge, CH2 and CH3 of human immunoglobulin Cγ1 chain (SEQ ID NO:56/57)

- PD-1 binding activity (OD450) [2]: reduced binding to PD-1
Molecule: K113S: murine B7-DC-Ig with the K113S substitution

Molecule: O=P1(N(CCCl)CCCl)NCCCO1 (stereo not shown) [CTX, cyclophosphamide]
- outcome of mice with established tumors [3]: died as a result of tumor growth or were euthanized

- PD-1 binding activity (OD450) [2]: reduced binding to PD-1
Molecule: D111S: murine B7-DC-Ig with the D111S substitution

B1: Murine B7-DC-Ig: murine PD-L2 (B7-DC) extracellular domain fused to hinge, CH2 and CH3 of murine immunoglobulin Cγ2a chain (SEQ ID NO:53/54) (protein, listed as Mus musculus)
chain: LFTVTAPKEVYTVDVGSSVSLECDFDRRECTELEGIRASLQKVENDTSLQSERATLLEEQLPLGKALFHIPSVQVRDSGQYRCLVICGAAWDYKYLTVKVKASYMRIDTRILEVPGTGEVQLTCQARGYPLAEVSWQNVSVPANTSHIRTPEGLYQVTSVLRLKPQPSRNFSCMFWNAHMKELTSAIIDPLSRMEPKVPRTWEPRGPTIKPCPPCKCPAPNLLGGPSVFIFPPKIKDVLMISLSPIVTCVVVDVSEDDPDVQISWFVNNVEVHTAQTQTHREDYNSTLRVVSALPIQHQDWMSGKEFKCKVNNKDLPAPIERTISKPKGSVRAPQVYVLPPPEEEMTKKQVTLTCMVTDFMPEDIYVEWTNNGKTELNYKNTEPVLDSDGSYFMYSKLRVEKKNWVERNSYSCSVVHEGLHNHHTTKSFSRTPGK
- mice in which tumor was eradicated (P815 mastocytoma cells; [5]): two
- mice responded to treatment (P815 mastocytoma cells; [5]): Four of 5
- mice with delayed tumor growth during treatment (P815 mastocytoma cells; [5]): two
- # Tumor <500 mm^3 (P815 mastocytoma cells; [6]): 2
- # Tumor free (P815 mastocytoma cells; [6]): 2
- # Tumor ≧500 mm^3 (P815 mastocytoma cells; [6]): 1
- outcome of re-challenge of tumor-free mice (P815 mastocytoma cells; re-challenged with 5×10^4 P815 cells on Day 52, opposite flank, through 74 days after primary inoculation): remained tumor free
- anti-tumor activity alone in the P815 model (P815 mastocytoma cells; single agent): effective
- anti-tumor activity alone against more aggressive, less immunogenic tumor types [4]: minimal activity
